Assay [1] has as its target Myc-tagged extracellular domain of NKp46 (human) (UniProt O76036). Put plainly: MST.
The target of assay [2] is recombinant NKp46 (Raman spectroscopy) (UniProt O76036). Put plainly: Raman spectroscopy.

Chain of UniProt O76036 (O76036 22-258): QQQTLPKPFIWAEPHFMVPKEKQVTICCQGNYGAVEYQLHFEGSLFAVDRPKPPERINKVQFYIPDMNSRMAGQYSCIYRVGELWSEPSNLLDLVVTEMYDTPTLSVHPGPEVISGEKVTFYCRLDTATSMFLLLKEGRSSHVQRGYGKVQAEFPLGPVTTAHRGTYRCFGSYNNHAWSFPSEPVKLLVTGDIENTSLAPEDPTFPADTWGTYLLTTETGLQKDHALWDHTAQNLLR

In turn, “CRT P domain fused at the C-terminus to the Fc domain of human Ig (Fc fusion)” had a Kd in assay [1] of 41.2 µM. In the case of “recombinant CRT (Raman spectroscopy) (from UniProt P27797 18-417) (natural protein)”, the Kd in assay [2] came out at 9.95 µM.
